Measurements: the nanobody polyreactivity screen of Harvey et al. (2022)

Assay: yeast display, Sf9 membrane polyspecificity reagent, FACS + sequencing; frameworks hold sequencing errors
How it was run: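 A synthetic nanobody library was expressed on Saccharomyces cerevisiae BJ5465 by galactose induction for 36–48 hours. The library was stained for 1 hour at 4 °C with 10% biotinylated, detergent-solubilized Sf9 membrane reagent and enriched with streptavidin microbeads before FACS. Low and high (top ~1%) gates were set on anti-HA fluorescence for expression and streptavidin fluorescence for reagent binding, and each polyreactivity label reflects the gate of origin.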

| Sequence | polyreactivity (PSR sort gate) |
| --- | --- |
| QVQLVESGGGLVQAGGSLRLSCAASGFTFHNYAMGWYRQAPGKERELVAAISASGSSTYYADSVKGRFTISRDNAKNTVYLQMNSLKPEDTAVYYCAAVGRYSPYGYWGQGTQVTVSS | high polyreactivity |
| QVQLVESGGGLVQAGGSLRLSCAASGFTFHQYTMGWYRQAPGKERELVAAISRSGYTNYADSVKGRFTISRDNAKNTVYLQMNSLKPEDTAVYYCNARSTRSRTYQSYDYWGQGTQVTVSS | high polyreactivity |
| QVQLVESGGGLVQAGGSLRLSCAASGFTFHRNAMGWYRQAPGKERELVAAISTRGGSTAYADSVKGRFTISRDNAKNTVYLQMNSLKPEDTAVYYCAAATSPGIYDYWGQGTQVTVSS | high polyreactivity |
| QVQLVESGGGLVQAGGSLRLSCAASGFTFHYNAMGWYRQAPGKERELVAAISRSGGITNYADSVKGRFTISRDNAKNTVYLQMNSLKPEDTAVYYCAAYLVVRIRYTQRYDYWGQGTQVTVSS | low polyreactivity |
| QVQLVESGGGLVQAGGSLRLSCAASGFTFHYYTMGWYRQAPGKERELVASINYSGGRTYYADSVKGRFTISRDNAKNTVYLQMNSLKPEDTAVYYCNARYKSTYYYWGQGTQVTVSS | high polyreactivity |
| QVQLVESGGGLVQAGGSLRLSCAASGFTFIFNAMGWNRQAPGKERELVATISSGGSTYYADSVKGRFTISRDNAKNTVYLQMNSLKPEDTAVYYCNTDDVGGYDYWGQGTQVTLSS | low polyreactivity |
| QVQLVESGGGLVQAGGSLRLSCAASGFTFIKYAMGWSRQAPGNEMEFVAAITRSGTSTYYADSVKGRFTISRDNAKNTVYLQMNSLKPEDTAVYYCAATYPRYYSGEFDYWGQGTLVTVSS | high polyreactivity |
| QVQLVESGGGLVQAGGSLRLSCAASGFTFIKYAMGWYRQATGNEREFVATISWNGGNTYYADSVKGRFTISRDNAKNTVYLQMNSLKPEDTAVYYCAARVKYRTRGGTVVSYDYWGQGTQVTVSS | high polyreactivity |
| QVQLVESGGGLVQAGGSLRLSCAASGFTFIRNAMGWYRQAPGKERELVAAISRSGGSTYYADSVKGRFTISRDNAKKTVYLQMNSQKPEDTAVYYCAVTLYLKWQGGAYDYWGQGTQVTVSS | low polyreactivity |
| QVQLVESGGGLVQAGGSLRLSCAASGFTFIRYAMGWYRQAPGKERELVATITRRGGSTYYADSVKGRFTISRDNAKNTVYLQMNSLKPEDTAVYYCNRDYVTYGKYYYWGQGTQVTVSS | high polyreactivity |
| QVQLVESGGGLVQAGGSLRLSCAASGFTFIRYAMGWYRQAPGKEREVVAAISWRVGITYYADSVKGRFTISRDNAKNTVYLQMNSQKPEDTAVYYCARDYRNPPFAYEYWGQGTQVTVSS | low polyreactivity |
| QVQLVESGGGLVQAGGSLRLSCAASGFTFIRYSMGWYRQAPGKERELVATISRSGGRTYYADSVKGRFTISRDNAKNTVYLQMNSLKPEDTAVYYCNAEAIVLNGGGYWGQGTQVTVSS | high polyreactivity |
| QVQLVESGGGLVQAGGSLRLSCAASGFTFISNAMGWYRQAPGKERELVAAISSSGGRTYYADSVKGRFTISRDNAKNTVYLQMNRLKPEDTAVYYCYADRSLLYSRKIEYDYWGQGTQVTVSS | low polyreactivity |
| QVQLVESGGGLVQAGGSLRLSCAASGFTFIYYAMGWYRQAPGKERELVAAISASGGSTYYADSVKGRFTISRDNAKNTVYLQMNSLKPEDTAVYYCAADALIYYKGSPDYYWGQGTQVTVSS | high polyreactivity |
| QVQLVESGGGLVQAGGSLRLSCAASGFTFKCYTMGWYRQAPGKERELVAGISRRGGSTYYADSVKGRFTISRDNAKNTVYLQMNSLKPEDTAVYDCAADSQLTKFYYWGQGSQVTVSS | high polyreactivity |
| QVQLVESGGGLVQAGGSLRLSCAASGFTFKGNAMGWYRQAPGTERELVATITQSAGSTYYADSVKGRFTISRDNAKNTVYLEMNSLKPEDTAVYYCNADPITLYYYSWYNYWGQGTQVTVSS | low polyreactivity |
| QVQLVESGGGLVQAGGSLRLSCAASGFTFKNNAMGWYRQAPGKEREFVASISSGSTNYADSVKGRFTISRDNAKYTVYLQMNSLKPEDTEVYYCIRAPYRYSEPDYRSDFWGQGTQVTVSS | low polyreactivity |
| QVQLVESGGGLVQAGGSLRLSCAASGFTFKQYGMGWYRQAPGKERELVASISYRGGSTHYADSVKGRFTISRDNAKKTVYLQMNSLKPEDTAVYYCAARVTSRTSIKGDYWGQGTQVTVSS | low polyreactivity |
| QVQLVESGGGLVQAGGSLRLSCAASGFTFKSYAMGWYRQAPGKERELVAAISRGTSTKYADSVKGRFTISRDNAKNTVYLQMNSLKPEDTAVYYCAALFPTSDLRLRYYRYDYWGQGTQVTVSS | low polyreactivity |
| QVQLVESGGGLVQAGGSLRLSCAASGFTFKSYGMGWYRQAPGKERELVAAISKSGGRTYYADSVKGRFTISRDNAKNTVYLQMNSLKPEDTAVYYCAARVYGVDGYGYWGQGTQVTVSS | high polyreactivity |
| QVQLVESGGGLVQAGGSLRLSCAASGFTFKYTDMGWYRQAPGKERELVAAINWRGGSTYYADSLKGRFTISRDNAKNTVYLQMNSLKPEDTAFYYCNLVYRPSRYDYWGQGTQVTVSS | high polyreactivity |

| Sequence | polyreactivity (PSR sort gate) |
| --- | --- |
| QVQLVESGGGLVQAGGSLRLSCAASGFTFKYYSMGRYRQAPGKERELVAAISRGGRTNYADSVKGRFTISRDNAKNTVYLQMNSLKPEDTAVYYCAADGIYALFFTSGGIWFDYWGEGTQVTVSS | low polyreactivity |
| QVQLVESGGGLVQAGGSLRLSCAASGFTFKYYTMGWYRHAPGKETELDAVITRSGGSTYADSVKGRFTISRDNAKNTVYLQMNSLKPVDTAVYYCAKGAAGINLVRHDYWGQVTQVTVSS | high polyreactivity |
| QVQLVESGGGLVQAGGSLRLSCAASGFTFKYYTMGWYRQAPGKERELVAAISKSGDITYYADSVKGRFTISRDNAKNTVYLQMNSLKPEDTAVYYCAAVGRVSYNRFDYWGQGTQVTVSS | high polyreactivity |
| QVQLVESGGGLVQAGGSLRLSCAASGFTFKYYTMGWYRQAPGKERELVAAISSAASTNYADSVKGRFTISRDNAKNTVYLQMNSLKPEDTAVYYCNADITGWARIRYQWIRQYDYWGQGTQVTVSS | high polyreactivity |
| QVQLVESGGGLVQAGGSLRLSCAASGFTFLAYAMGWYRQAPGKERELGAAISKSGGSTYYADSVKGRFTISRDNAKITVYLQMNSLKPEDTAVYYCNAGRRIKFYGSYDYWGQGTQVTVSS | high polyreactivity |
| QVQLVESGGGLVQAGGSLRLSCAASGFTFLAYAMGWYRQAPGKERELVAAISRSGGRTYYADSVKGRFTISRDNAKNTVYLQMNSLNPEDTAVYYCAAPPRANLFDYWGQGTQVTVSS | high polyreactivity |
| QVQLVESGGGLVQAGGSLRLSCAASGFTFLFYAKGWYRHAPGKEMELVAAISWSGDTTYYADSVKGRFTISLDNSKNTVYLQMNSLKPEDTAVYYCNAESNIFGYDYWGQGTQVTVTS | high polyreactivity |
| QVQLVESGGGLVQAGGSLRLSCAASGFTFLINAMGWYRQAPGKERELVAAIRSGGSTNYADSVKGRFTISRDNAKNTVYFQMNSLKPEDTAVYYCAARRYYPYKYRYGYWGQGTQVTVSS | high polyreactivity |
| QVQLVESGGGLVQAGGSLRLSCAASGFTFLIYAMGWYRQAPGKERELVAAITWRGSGTYYADSVKGRFTISRDNAKNTVYLQMNSLNPEDTAVFYCGARTARRTYDYWGQGTQVTVSS | low polyreactivity |
| QVQLVESGGGLVQAGGSLRLSCAASGFTFLKYAMGWYIQAPGKERELVARITSGGRTYYADSVKGRFTISRDNAKNTVYLQMNSLKPEDTAVYYCNAVKSYASLYAGFYYWGQGTQVTVSS | high polyreactivity |
| QVQLVESGGGLVQAGGSLRLSCAASGFTFLNYAMGWYRQAPGKERELVAAISFSTGRTYYADSVKGRFTISRDNAKNTVYLQMNSLKPEDTAVYYCYVLHRSDSGYYYRYDYWGQVTQVTVSS | high polyreactivity |
| QVQLVESGGGLVQAGGSLRLSCAASGFTFLRYALGWYRQAPGKERELVAAISTSGGSTSYADSVKGRFTITRDNAKNTVYLQMNSLKPEDTAVYYCNAVLYKVSISEYDYWGQGTQVTVSS | high polyreactivity |
| QVQLVESGGGLVQAGGSLRLSCAASGFTFLRYAMGWYRQAPGKERELVAGITSRGASTYYADSVKGRFTISRDNAKTTVYLQINSLKPEDTAVYYCAADGSHTRYRYDYWGQGTQVTVSS | high polyreactivity |
| QVQLVESGGGLVQAGGSLRLSCAASGFTFLSYTMGWYRQAPGKERELVASITASGTRTYYADSVKGRFTISRDNAKNTVYLQMNSLKPEDTAVYYCNRVGFDYWGQGTQVTVSS | low polyreactivity |
| QVQLVESGGGLVQAGGSLRLSCAASGFTFLSYTMGWYSQAPGKERELVASITASGTRTYYADSVKGRFIISRDNAKNTVYLQMNRLKPEDTAVYYFAARWISVWSEGAEHDYWGQGTQVTVSS | low polyreactivity |
| QVQLVESGGGLVQAGGSLRLSCAASGFTFLYNAMGWYRQAPGKERELVAAIDSGGMTNYADSVKGRFTISRDNAKNTVYLQMKSLKPEDTAVYYCAARFTQYITSDDGHYYYWGQGTQVTVSS | low polyreactivity |
| QVQLVESGGGLVQAGGSLRLSCAASGFTFLYNAMGWYRQAPVKERELVASINSGGSTNYADSVKGRFTISRDNAKNTVYLQMNSLKPEDTAVYYCNAKRHVRKGDYWGLGTQVTVSS | low polyreactivity |
| QVQLVESGGGLVQAGGSLRLSCAASGFTFLYNVMGWYRQAPGKERELVAAISQSGTDTYYADSVKGRFTISRDNAKNTVYLQKNSLKPEDTAVYYCATEYYSQPRDDYWGQGTQVTVSS | low polyreactivity |
| QVQLVESGGGLVQAGGSLRLSCAASGFTFLYYDMGWYRQAPGKERELVAAITNDDSTYYADSVKGRFTISRDNAKNTVYLQMNSLKPEDTAVYYCAADSVYGSDEYWGQGTQVTVSS | high polyreactivity |
| QVQLVESGGGLVQAGGSLRLSCAASGFTFNANAMGWYRQAPGKERELVAFITRSGGRTYYADSVKGRFTISRDNAKNTVYLQMNSLKPEDTAVYYCAKEGPSRVYQGTDSASDYWGQGTQVTVSS | high polyreactivity |
